One molecule from paper PMC7954662 (Science (New York, N.Y.), 2020) can be followed below.

The assay deals with Human GCGR (Q27-F477) with N-terminal FLAG and C-terminal octahistidine tag (human, UniProt P47871 27-477). As to the kind of experiment: cryo-EM structure.
Human GCGR (Q27-F477) with N-terminal FLAG and C-terminal octahistidine tag, sequence (P47871 27-477): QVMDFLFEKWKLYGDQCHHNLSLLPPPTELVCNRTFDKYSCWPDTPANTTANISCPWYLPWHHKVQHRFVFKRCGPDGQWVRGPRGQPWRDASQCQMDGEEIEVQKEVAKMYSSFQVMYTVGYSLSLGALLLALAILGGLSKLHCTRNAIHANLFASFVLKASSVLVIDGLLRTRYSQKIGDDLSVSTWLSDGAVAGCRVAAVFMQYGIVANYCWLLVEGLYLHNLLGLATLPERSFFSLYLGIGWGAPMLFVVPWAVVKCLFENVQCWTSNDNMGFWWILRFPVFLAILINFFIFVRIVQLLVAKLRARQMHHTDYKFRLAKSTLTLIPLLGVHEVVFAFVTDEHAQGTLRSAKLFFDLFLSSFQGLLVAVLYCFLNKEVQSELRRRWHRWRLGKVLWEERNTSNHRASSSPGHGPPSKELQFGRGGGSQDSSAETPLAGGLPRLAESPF

B1: Gαs (human, short splice variant), subunit of the Gs heterotrimer (natural protein)
chain: MGCLGNSKTEDQRNEEKAQREANKKIEKQLQKDKQVYRATHRLLLLGAGESGKSTIVKQMRILHVNGFNGDSEKATKVQDIKNNLKEAIETIVAAMSNLVPPVELANPENQFRVDYILSVMNVPDFDFPPEFYEHAKALWEDEGVRACYERSNEYQLIDCAQYFLDKIDVIKQADYVPSDQDLLRCRVLTSGIFETKFQVDKVNFHMFDVGGQRDERRKWIQCFNDVTAIIFVVASSSYNMVIREDNQTNRLQEALNLFKSIWNNRWLRTISVILFLNKQDLLAEKVLAGKSKIEDYFPEFARYTTPEDATPEPGEDPRVTRAKYFIRDEFLRISTASGDGRHYCYPHFTCAVDTENIRRVFNDCRDIIQRMHLRQYELL
With B1, the binding result is listed as “binds”.
